{"source": "patent US20260201030A1", "about": "“ANTIBODY, ANTIBODY-DRUG CONJUGATE THEREOF AND USE THEREOF” (EVOPOINT BIOSCIENCES CO., LTD., priority 2021, published 2026)", "molecules": {"B1": {"name": "2D3A11-HZ1: humanized anti-Claudin18.2 antibody, VH SEQ ID NO: 38, VL SEQ ID NO: 39 (antibody, V domains shown)", "VH": "QVQLVQSGAEVKKPGASVKVSCKASGYTFTSYVVHWVRQAPGQGLEWMGYINPYNADSKYSQEFQGRATLTSDKSASTAYMELSSLRSEDMAVYYCSRSYYGNSFDVWGQGTLVTVSS", "VL": "DIVMTQSPDSLAVSLGERATINCKSSQSLLNSGNQKNYLTWYQQKPGQSPKLLFFWASTRQSGVPDRFSGSGSGTDFTLTISSLQAEDVAVYYCQNDYYFPFTFGQGTKVEIK"}, "B2": {"name": "1A6G10: anti-human Claudin18.2 murine monoclonal antibody, VH SEQ ID NO: 46, VL SEQ ID NO: 47 (antibody, V domains shown)", "VH": "QVQLKESGGGLVKPGGSLKLSCAASGFTFSSYAMSWVRQTPEKRLEWVAAIHSNGGSTYNSDTMRDRFTISRDHAKNTLYLQMSSLRSEDTALYYCGRQSFGNALDYWGQGTSVTVSS", "VL": "DIQMTQSPSSLTVTAGEKVTLTCKSSQSLLNSGNQKNYLTWYQQKPGQPPKLLIYWASTRESGVPDRFTGSGSGTFFTLTISSVQAEDLAVYFCQNDYVYPFTFGAGTQLELK"}, "B3": {"name": "2D3A11-HZ2: humanized anti-Claudin18.2 antibody, VH SEQ ID NO: 40, VL SEQ ID NO: 39 (antibody, V domains shown)", "VH": "B1 VH with Q6E", "VL": "B1 VL"}}, "key": {"human Claudin18.2 [1]": {"biological_target": "T1, human Claudin18.2 (Homo sapiens, UniProt P56856)", "T1 construct": "expressed in transfected cells", "assay": "Cell-based ELISA affinity of humanized antibodies on L929-Claudin18.2 (human) cells", "format": "binding", "conditions": "L929-Claudin18.2 cells"}, "human Claudin18.2 [2]": {"biological_target": "T1, human Claudin18.2", "assay": "Cell-based ELISA affinity of humanized antibodies on HEK293T-Claudin18.2 (human) cells", "format": "binding", "conditions": "HEK293T-Claudin18.2 cells", "procedure": "(§1) The affinity of the anti-human Claudin18.2 murine monoclonal antibodies was evaluated by cell-based ELISA. The experimental procedures were as follows: The day before the experiment, HEK293T-Claudin18.2 (human) cells were plated in a 96-well plate at 5×10^4 cells/well. On the day of the experiment, the supernatant was removed, the cells in each well were washed once with 300 μL of PBS, and 100 μL of 4% paraformaldehyde was added to each well for fixation at room temperature for 20 min. Paraformaldehyde was then removed, and the cells in each well were washed twice with 300 μL of PBS. 100 μL of 2% BSA (in PBS) was added to each well, and the mixture was blocked at 37° C. for 2 h. After removing the blocking solution, each antibody subjected to gradient dilution (diluted with 2% BSA (in PBS), starting at […], in a 3-fold gradient, for a total of 11 concentration points) was added to the plate at 100 μL/well, and the mixture was incubated at 37° C. for 2 h. The supernatant was removed, and the cells in each well were washed three times with 300 μL of PBST. 100 μL of an anti-mouse IgG HRP secondary antibody (Jackson, cat #115-035-003) in 2% BSA was added to each well, and the mixture was incubated at 37° C. for 1 h. The secondary antibody was then removed, and the cells in each well were washed five times with 300 μL of PBST, followed by the addition of 100 μL of a TMB substrate (Huzhou InnoReagents Co., Ltd.) per well for color development for 5-20 min. The reaction was stopped by adding 50 μL of 2 N HCl to each well, and OD450 nm values were read on a microplate reader (manufacturer: MD, model: SpectraMax). The values obtained were plotted by GraphPad Prism to calculate the EC50 value.\nThe affinity of the anti-human Claudin18.2 humanized monoclonal antibodies was determined by cell-based ELISA. The cell-based ELISA was conducted as described in Example I-3."}, "human Claudin18.2 [3]": {"biological_target": "T1, human Claudin18.2", "assay": "Cell-based ELISA affinity on NUGC4 cells endogenously expressing human Claudin18.2", "format": "binding"}, "human Claudin18.2 [4]": {"biological_target": "T1, human Claudin18.2", "assay": "Cell-based FACS affinity on HEK293T-Claudin18.2 (human) cells", "format": "binding", "procedure": "The affinity of the anti-human Claudin18.2 humanized antibodies was detected by flow cytometry. The experimental procedures were as follows: The adherent cultured HEK293T-Claudin18.2 (human), NUGC4-Claudin18.2 (human) and NUGC4 cells were digested, collected by centrifugation, and washed three times with pre-cooled PBS. The cells were resuspended in 1% BSA (in PBS) and added to a 96-well pointed bottom plate at 3×10^5 cells/well, with a volume of 50 μL per well. Each test antibody was diluted with 1% BSA (in PBS) (starting at 100 μg/mL, diluted in a 3-fold gradient, for 10 concentration points). The test antibody subjected to gradient dilution was added to the cells at 50 μL/well, and the mixture was well mixed and incubated at 4° C. for 1 h. The cells were collected by centrifugation, washed three times with pre-cooled PBS, and resuspended in 50 μL of 1% BSA (in PBS). 1 μL of a fluorescent secondary antibody (Biolegend-410712) was added to each well, and the mixture was well mixed and incubated at 4° C. for 0.5 h. The cells were collected by centrifugation, washed three times with pre-cooled PBS, resuspended in 200 μL of PBS, and assayed on a machine."}, "[5]": {"test_system": "cynomolgus monkey Claudin18.2", "assay": "FACS species affinity on HEK293T-Claudin18.2 (cynomolgus monkey) cells", "format": "binding", "conditions": "cell-based FACS", "procedure": "The affinity of the anti-human Claudin18.2 humanized monoclonal antibodies for Claudin18.2 of different species was determined by flow cytometry (FACS). The experimental procedures were as follows: HEK293T-Claudin18.2 (cynomolgus monkey) cells, HEK293T-Claudin18.2 (mouse) cells and HEK293T-Claudin18.2 (rat) cells were digested, collected by centrifugation, washed three times with pre-cooled PBS, resuspended in 1% BSA (in PBS), and added to a 96-well pointed bottom plate at 3×10^5 cells/well. Each antibody subjected to gradient dilution was added, and the mixture was incubated at 4° C. for 1 h. The cells were washed three times with pre-cooled PBS, and then 1 μL of a fluorescent secondary antibody (APC: Biolegend-410712) was added to each well. The mixture was incubated at 4° C. for 0.5 h, and the cells were washed three times with pre-cooled PBS, then resuspended, and assayed on a flow cytometer."}, "human Claudin18.1": {"biological_target": "T2, human Claudin18.1 (Homo sapiens, UniProt P56856)", "T2 construct": "expressed in transfected cells", "assay": "FACS specificity of humanized antibodies on HEK293T-Claudin18.1 (human) cells", "format": "binding", "conditions": "antibody 50 μg/mL, APC secondary antibody", "procedure": "The specificity of the anti-human Claudin18.2 humanized monoclonal antibodies was determined by flow cytometry (FACS). The experimental procedures were as follows: HEK293T-Claudin18.1 (human) cells were digested, collected by centrifugation, washed three times with pre-cooled PBS, resuspended in 1% BSA (in PBS), and added to a 96-well pointed bottom plate at 3×10^5 cells/well. Each test antibody with a final concentration of 50 μg/mL was added, and the mixture was incubated at 4° C. for 1 h. The cells were washed three times with pre-cooled PBS, and then 1 μL of a fluorescent secondary antibody (APC: Biolegend-410712 or PE: BioLegend-410708) was added to each well. The mixture was incubated at 4° C. for 0.5 h, and the cells were washed three times with pre-cooled PBS, then resuspended, and assayed on a flow cytometer. For reference, anti-human Claudin18.1 positive control antibodies (positive control antibody-1 and positive control antibody-2) were included in the experiment."}, "[6]": {"test_system": "HEK293T-Claudin18.2 (human) cells", "assay": "ADCC activity, fluorescein reporter system (Jurkat-NFAT-CD16a)", "format": "cell-based", "conditions": "HEK293T-Claudin18.2 (human) target cells, 5 h", "procedure": "ADCC activity of the anti-human Claudin18.2 humanized monoclonal antibodies was detected by a fluorescein reporter system. The experiment was carried out using a Rhinogen® Bio-Glory One-Step Firefly Luciferase Assay kit (Suzhou Rhino Bio, RA-GL04), following the manufacturer's instructions. The experimental procedures were as follows: HEK293T-Claudin18.2 (human) cells were digested, collected by centrifugation, resuspended in DMEM+1% FBS, and then plated at 50000 cells/well. Jurkat-NFAT-CD16a cells were collected by centrifugation and resuspended in 1640+1% FBS, and then plated at 100000 cells/well. Each test antibody subjected to gradient dilution was added, and the mixture was incubated at 37° C. for 5 h. 50 μL of a Bio-Glory One-Step luciferase substrate was added to each well, and readings were taken on a microplate reader (MD, SpectraMax i3x)."}, "[7]": {"test_system": "HEK293T-Claudin18.2 (human) cells", "assay": "CDC activity, guinea pig serum killing experiment", "format": "cell-based", "conditions": "20% guinea pig serum, 5 h", "procedure": "CDC activity of the anti-human Claudin18.2 humanized monoclonal antibodies was detected by a guinea pig serum killing experiment. The experimental procedures were as follows: HEK293T-Claudin18.2 (human) cells were digested, collected by centrifugation, plated at 50000 cells/well, and incubated overnight. The supernatant was discarded, and 100 μL of each test antibody subjected to gradient dilution with DMEM+20% guinea pig serum (Beijing Bersee, BM361Y) was added to each well. The mixture was incubated at 37° C. for 5 h, and 20 μL of a CCK8 reagent (Suzhou Rhino Bio, QDY-003-D) was added to each well. The mixture was allowed to react for 1-4 h, and readings were taken at 450 nm on a microplate reader."}, "human Claudin18.2 [8]": {"biological_target": "T1, human Claudin18.2", "assay": "Cell-based ELISA affinity of murine antibodies on HEK293T-Claudin18.2 (human) cells", "format": "binding", "procedure": "as §1"}}, "note": "Where a chain is given by its changes, count along the chain named."}
{"molecule": "B1", "values": [{"measurement": "Affinity detected by cell-based ELISA (EC50, ng/mL) L929-Claudin18.2", "setting": "human Claudin18.2 [1]", "result": "17.12 ± 0.85(N = 2) ng/mL"}, {"measurement": "Affinity detected by cell-based ELISA (EC50, ng/mL) HEK293T-Claudin18.2", "setting": "human Claudin18.2 [2]", "result": "12.67 ± 2.1(N = 2) ng/mL"}, {"measurement": "NUCG4 EC50", "setting": "human Claudin18.2 [3]", "result": 0.09518, "unit": "µg/mL"}, {"measurement": "NUCG4 Maximum signal value", "setting": "human Claudin18.2 [3]; OD450", "result": 0.316}, {"measurement": "HEK293T-Claudin18.2 EC50", "setting": "human Claudin18.2 [4]", "result": 0.3687, "unit": "µg/mL"}, {"measurement": "HEK293T-Claudin18.2 Maximum signal value", "setting": "human Claudin18.2 [4]", "result": 132603}, {"measurement": "HEK293T-Claudin18.2 (cynomolgus monkey) EC50", "setting": "[5]", "result": 0.1719, "unit": "µg/mL"}, {"measurement": "Mean APC fluorescence signal value", "setting": "human Claudin18.1", "result": 281}, {"measurement": "Median APC fluorescence signal value", "setting": "human Claudin18.1", "result": 233}, {"measurement": "Positive rate (%)", "setting": "human Claudin18.1", "result": 0.69, "unit": "%"}, {"measurement": "ADCC activity EC50", "setting": "[6]", "result": 0.04791, "unit": "µg/mL"}, {"measurement": "CDC activity EC50", "setting": "[7]", "result": 1.904, "unit": "µg/mL"}]}
{"molecule": "B2", "values": [{"measurement": "Affinity HEK293T-18.2 EC50", "setting": "human Claudin18.2 [8]", "result": 0.005024, "unit": "µg/mL"}]}
{"molecule": "B3", "values": [{"measurement": "Affinity detected by cell-based ELISA (EC50, ng/mL) L929-Claudin18.2", "setting": "human Claudin18.2 [1]", "result": 25.62, "unit": "ng/mL"}, {"measurement": "Affinity detected by cell-based ELISA (EC50, ng/mL) HEK293T-Claudin18.2", "setting": "human Claudin18.2 [2]", "result": "14.01 ± 2.29(N = 2) ng/mL"}, {"measurement": "Mean APC fluorescence signal value", "setting": "human Claudin18.1", "result": 382}, {"measurement": "Median APC fluorescence signal value", "setting": "human Claudin18.1", "result": 329}, {"measurement": "Positive rate (%)", "setting": "human Claudin18.1", "result": 1, "unit": "%"}]}
